Test results as given in paper PMC11004252.

Molecular target: phospho-Ser 2 carboxy-terminal domain (CTD) RNA polymerase II (human (endogenous in hSAECs)), P24928
Assay: proximity ligation; Duolink in situ PLA, mouse anti-IRF1 and rabbit anti-pSer2 Pol II Abs, fixed and permeabilized hSAECs, mock or RSV infected (MOI 1, 24 h), solvent
Settings: remark: other sources report otherwise

B1: interferon regulatory factor 1 (IRF1), P10914 1-325 (natural protein)
chain: MPITRMRMRPWLEMQINSNQIPGLIWINKEEMIFQIPWKHAAKHGWDINKDACLFRSWAIHTGRYKAGEKEPDPKTWKANFRCAMNSLPDIEEVKDQSRNKGSSAVRVYRMLPPLTKNQRKERKSKSSRDAKSKAKRKSCGDSSPDTFSDGLSSSTLPDDHSSYTVPGYMQDLEVEQALTPALSPCAVSSTLPDWHIPVEVVPDSTSDLYNFQVSPMPSTSEATTDEDEEGKLPEDIMKLLEQSEWQPTNVDGKGYLLNEPGVQPTSVYGDFSCKEEPEIDSPGGDIGLSLQRVFTDLKNMDATWLDSLLTPVRLPSIQAIPCAP
modifications: here or on the partner: phospho-Ser 2 of the carboxy-terminal domain (CTD)
  PLA foci/nucleus (RSV infected): 24 foci/nucleus
  PLA foci/nucleus (mock infected): 6.3 foci/nucleus
  fold increase of PLA complex, RSV against mock: 25 fold
  percent of cells with PLA complexes (uninfected): > 90 % of cells
